# T1: Source 1 VEGF-D, mature dimeric recombinant human VEGF-D (CSIRO) (human, UniProt O43915 89-205)
# T1 sequence: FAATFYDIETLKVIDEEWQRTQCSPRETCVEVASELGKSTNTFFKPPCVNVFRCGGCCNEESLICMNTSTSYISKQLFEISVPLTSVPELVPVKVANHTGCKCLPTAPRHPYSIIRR
# T2: Source 2 VEGF-D, purified recombinant human VEGF-D monomer (R&D Systems, Catalog Number 622-VD/CF) (human, UniProt O43915 93-201)
# T2 sequence: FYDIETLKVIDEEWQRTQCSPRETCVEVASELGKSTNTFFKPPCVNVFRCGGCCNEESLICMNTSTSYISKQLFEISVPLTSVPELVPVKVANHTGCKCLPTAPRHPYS
# T3: VEGF-D (recombinant human; source not given) (human, UniProt O43915 89-205, limits assumed)
# T3 construct: also used here as target of IC50 values averaged over Source 1 and Source 2; also called vascular endothelial growth factor-D
# T3 sequence: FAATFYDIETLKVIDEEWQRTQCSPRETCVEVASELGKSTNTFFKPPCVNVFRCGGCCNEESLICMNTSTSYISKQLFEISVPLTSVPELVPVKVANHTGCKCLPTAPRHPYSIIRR
# Assays:
# [1] = target: T1, Source 1 VEGF-D, mature dimeric …; assay: cell-based or functional assay
# [2] = target: T2, Source 2 VEGF-D, purified recombinant …; assay: cell-based or functional assay
# [3] = target: T1, Source 1 VEGF-D, mature dimeric …; assay: SPR Protocol A, KD against that of Ig-1A
# Method: (§1) Protocol A: The first assay format, Protocol A, used an assay system where IgGs were captured on a biosensor chip surface using an anti-human IgG (Fc) antibody and the Source 1 VEGF-D dimer run over the chip as the analyte in solution. This ensured that all IgG molecules were presented to the antigen in an active orientation.
# (§2) The SPR protocol was slightly modified to compensate for the dimeric nature of the VEGF-D. Ig-1A or IgG variants were analyzed using an anti-human capture kit as described for Anti-human IgG (Fc) capture above, except that 1000 RU of the IgG or IgG variant was captured on the anti-human chip surface. […] The kinetics generated using this approach are accurate within the experimental parameters set. This standard assay protocol is best suited to studying 1:1 interactions and thus, may not be ideal for analyzing binding between the IgG variants and the VEGF-D dimer. In light of this, Protocol B was also used.
# [4] = target: T1, Source 1 VEGF-D, mature dimeric …; assay: SPR Protocol B, KD against that of Ig-1A
# Method: (§3) Protocol B: In the second assay format, Protocol B, the orientation of the IgGs and the VEGF-D antigen was reversed relative to Protocol A. The Source 1 VEGF-D dimer was immobilized directly on the chip surface by amine coupling and the murine anti-VEGF-D monoclonal antibody, Ig-1A or IgG variants flowed over this surface as analytes at concentrations of 4 nM, 1.33 nM, and 0.44 nM. This protocol allowed avidity effects to be controlled by reducing the density of dimeric VEGF-D immobilized on the chip and in effect reduce the bivalent binding properties of the system being analyzed.
# (§4) All four flow cells on a CM5 chip were activated for 7 min at 25° C. using a mixture of NHS.EDC. Flow cell one was used as an unmodified (activated and blocked) reference against flow cells 2-4. Source 1 VEGF-D dimer was diluted to 1-3 μg/ml into 10 mM sodium acetate, pH 4, and injected over three surfaces for different lengths of time to achieve low ligand densities of 10, 15 and 20 RU to minimize avidity effects of the IgG. All surfaces were blocked for 7 min with ethanolamine (1M, pH 8.2) and pre-conditioned using five 10 s injections of 100 mM H₃PO₄; 1M NaCl. Immobilization steps were carried out at a flow rate of 30 μl/min using HBS-N running buffer.
# (§5) All IgG binding experiments were performed at 25° C. using HBS-EP+ running buffer. Analytes (murine reference anti-VEGF-D monoclonal antibody and humanized variants) were injected for 200 s at a flow rate of 70 μl/min and dissociation monitored for 250 s. The antigen surfaces were regenerated with a 10 s pulse of 100 mM H₃PO₄; 1M NaCl. Analyte concentrations used for murine and humanized variants were 4 nM, 1.33 nM, and 0.44 nM. Data was processed using the reference surface and double referencing from blank injections. Binding constants for the IgG/antigen interactions were determined from the three antigen surfaces globally fitted to a 1:1 interaction model. Refractive index parameter was constant (RI=0).
# [5] = target: T1, Source 1 VEGF-D, mature dimeric …; assay: SPR Protocol B: VEGF-D dimer amine-coupled, IgG as analyte
# Method: as §3, §4, §5
# [6] = target: T1, Source 1 VEGF-D, mature dimeric …; assay: SPR Protocol A: IgG captured by anti-human Fc, VEGF-D dimer as analyte
# Method: as §1, §2
# [7] = target: T3, VEGF-D (recombinant human; source not …); assay: SPR (BIAcore), KD against that of scFv 1A
# Method: (§6) scFv variants were fully characterized using a BIAcore™ biosensor. All isolated scFv samples were purified as monomer peaks by anti-FLAG affinity chromatography followed by gel filtration chromatography. BIAcore™ analysis was performed by directly immobilizing VEGF-D on a CM5 surface using amine coupling, with the scFv run as the analyte. Analysis of binding was carried out using the BIAevaluation kinetic analysis software. All repeats were separate protein expressions and were performed at 25° C.
# (§7) Clones F61, A63, AR7, AW61, CJ37, DI126 and DA18 were produced in large-scale expression cultures and purified by anti-FLAG affinity chromatography and gel filtration. The binding kinetics against VEGF-D were then measured using a BIAcore™ biosensor as described previously.
# [8] = target: T3, VEGF-D (recombinant human; source not …); assay: SPR (BIAcore) off-rate ranking of scFv clones
# Method: Screening based on scFv binding properties involved surface plasmon resonance (SPR) measurements with a BIAcore™ biosensor. scFv variants were expressed in 200 μL E. coli cultures and the supernatants used to generate crude off-rate only kinetics, which were assessed “relative” to 1A, or other variants.
# [9] = target: T3, VEGF-D (recombinant human; source not …); assay: SPR (BIAcore), VEGF-D amine-coupled on CM5, purified scFv as analyte
# Method: as §6, §7
Binder,rank in the VEGFR-3-Ba/F3 bioassay [1] [rank],rank in the VEGFR-3-Ba/F3 bioassay [2] [rank],Fold-improvement with respect to Ig-1A [3] [fold],Fold-improvement with respect to Ig-1A [4] [fold],Kd [5] [nM],koff [5] [s⁻¹],kon [5] [M⁻¹ s⁻¹],Kd [6] [nM],koff [6] [s⁻¹],kon [6] [M⁻¹ s⁻¹],Fold-improvement with respect to clone 1A [7] [fold],koff [8] [s⁻¹],Kd [9] [nM],koff [9] [s⁻¹],kon [9] [M⁻¹ s⁻¹]
"humanized IgG antibody derived from clone HH41 (antibody, V domains shown, IgG; also called HH41#1; HH41#2) VH: QVQLVQSGAEVKQPGASVKVSCKASGYTFTGYNMYWVRQAPGQGLEWMGYIDPYNGDTTYNQKFKGRVTMTTDTSTSTAYMKLRSLRSDDTAVYYCARTSYYGGMDYWGRGTLVTVAS VL: DIVMTQTPLSSPVTLGQPASISCRSSQSLVHGNGNTYLHWLQQRPGQPPRLLIYKVSNRFSGVPDRFSGSGAGTDFTLKISRVEAEDVGVYYCSQSTHVPRTFGQGTKLEIKR",8,6,1.9,4.9,0.36,0.0017,4.7e+06,0.364,0.00019,530000,–,–,–,–,–
"humanized IgG antibody derived from clone HH69 (antibody, V domains shown, IgG) VH: QVQLVQSGAKVKQPGASVKASCKASGYTFTGYNMYWVRQAPGQGLEWMGYIDPYSGDTTYNQKFKGRVTMTTDTSTSTAYMELRSLRSDDTAVYYCARTSYYGGMDYWGRGTLVTVAS VL: DIVMTQTPLSGPVTLGQPASISCRSSQSLVHSNGNTYLHWLQQRPGQPPRLLIYKVSNRFSGVPDRFSGSGAGTDFTLKISRVEAEDVGVYYCSQSTHVPRTFGRGTKLEIKR",3,3,3.5,5.3,0.33,0.001,3e+06,0.201,7.7e-05,390000,–,–,–,–,–
"humanized IgG antibody derived from clone HX28 (antibody, V domains shown, IgG) VH: QVQLVQSGAKVKQPGASVKASCKASGYTFTGYNMYWVRQAPGQGLEWMGYIDPYSGDTTYNQKFKGRVTMTTDTSTSTAYMELRSLRSDDTAVYYCARTSYYGGMDYWGRGTLVTVAS VL: DIVMTQTPLSSPVTLGQPASISCRSSQSLVHSNGNTYLHWLQQRPGQPPRLLIYKVSNRFSGVPGRFSGSGAGTDFTLKISRVEAEDVGVYYCSQSTHVPRTFGQGTKLEIKR",1,1,1.8,–,–,–,–,0.383,0.00014,360000,–,–,–,–,–
scFv clone A63 (scFv) scFv: QVQLVQSGAKVKQPGASVKASCKASGYTFTGYNMYWVRQAPGQGLEWMGYIDPYNGDTTYNQKFKGRVTMTTDTSTSTAYMELRSLRSDDTAVYYCARTSYYGGMDYWGRGTLVTVASGGGASGGGGSGGGGSDIVMTQTPLSSPVTLGQPASISCRSSQSLVHSNGNTYLHWLQQRPGQPPRLLIYKVSNRFSGVPDRFSGSGAGTDFTLKISRVEAEDVGVYYCSQSTHVPRTFGQGTKLEIKR,–,–,–,–,–,–,–,–,–,–,2.7,0.00327,4.83,0.0072,1.49e+06
scFv clone AR74 (scFv) scFv: QVQLVQSGAEVKQPGASVKVSCKASGYTFTGYNMYWVRQAPGQGLEWMGYIDPYNGDTTYNQKFKGRVTMTTGTSTSTAYMKLRSLRSDDTAVYYCARASYYGGMDYWGRGTLVTVASGGGASGGGGSGGGGSDIVMTQTPLSSPVTLGQPASISCRSSQSLVHSNGNTYLHWLQQRPGQPPRLLIYKVSNRFSGVPDRFSGSGAGTDFTLKISRVEAEDVGVYYCSQSTHVPRTFGQGTKLEIKR,–,–,–,–,–,–,–,–,–,–,6.2,0.00167,2.12,0.00379,1.79e+06
scFv clone AW61 (scFv) scFv: QVQLVQSGAEVKQPGASVKVSCKASGYTFTGYNMYWVRQAPGQGLEWMGYIDPYNGDTTYNQKFKGRATMTTDTSTSTAYMKLRSLRSDDTAVYYCARTSYYGGMDYWGRGTLVTVASGGGASGGGGSGGGGSDIVMTQTPLSSPVTLGQPASISCRSSQSLVHSNGNTYLHWLQQRPGQPPRLLIYKVSNRFSGVPDRFSGSGAGTDFTLKISRVEAEDVGVYYCSQSTHVPRTFGQGTKLEIKR,–,–,–,–,–,–,–,–,–,–,3.1,0.00222,4.23,0.00828,1.96e+06
scFv clone CJ37 (scFv) scFv: QVQLVQSGAEVKQPGASVKVSCKASGYTFTGYNMYWVRQAPGQGLEWMGYIDPYNGDTTYNQKFKGRVTMTTDTSTSTAYMKLRSLRSDDTAVYYCARTSYYGGMDYWGRGTLVTVASGGGASGGGGSGGGGSDIVMTQTPLSSPVTLGQPASISCRSSQSLVHSNGNTYLHWLQQRPGQPPRLLIYKVSNRFSGVPDRFSGSGAGTDFTLKISRVEAEDVGVYYCSQSTHVPRTFGRGTKLEIKR,–,–,–,–,–,–,–,–,–,–,3.7,0.00732,3.55,0.00995,2.81e+06
"scFv clone DI26 (scFv, also called DI126) scFv: QVQLVQSGAKVKQPGASVKASCKASGYTFTGYNMYWVRQAPGQGLEWMGYIDPYSGDTTYNQKFKGRVTMTTDTSTSTAYMELRSLRSDDTAVYYCARTSYYGGMDYWGRGTLVTVASGGGASGGGGSGGGGSDIVMTQTPLSSPVTLGQPASISCRSSQSLVHSNGNTYLHWLQQRPGQPPRLLIYKVSNRFSGVPDRFSGSGAGTDFTLKISRVEAEDVGVYYCSQSTHVPRTFGQGTKLEIKR",–,–,–,–,–,–,–,–,–,–,4.2,0.00361,3.12,0.0093,2.98e+06
scFv clone F61 (scFv) scFv: QVQLVQSGAEVKQPGASVKVSCKASGYTFTGYNMYWVRQAPGQGLEWMGYIDPYNGDTTYNQKFKGRVTMTTDTSTSTAYMKLRSLRSDDTAVYYCARTSYYGGMDYWGRGTLVTVASGGGASGGGGSGGGGSDIVMTQTPLSSPVTLGQPASISCRSSQSLVHSNGNTYLHWLQQRPGQPPRLLIYKVSNRFSGVPDRFSGSGAGTDFTLKISRVEAEDVGVYYCSQSTHVPRTFGQGTKLEIKR,–,–,–,–,–,–,–,–,–,–,4,0.00335,3.31,0.00899,2.72e+06
